One molecule from article PMC7469494 (Autophagy, 2019) can be followed below.

One experiment deals with T1, full-length Vac8 (S. cerevisiae, UniProt P39968 1-578).
T1 sequence (looked up): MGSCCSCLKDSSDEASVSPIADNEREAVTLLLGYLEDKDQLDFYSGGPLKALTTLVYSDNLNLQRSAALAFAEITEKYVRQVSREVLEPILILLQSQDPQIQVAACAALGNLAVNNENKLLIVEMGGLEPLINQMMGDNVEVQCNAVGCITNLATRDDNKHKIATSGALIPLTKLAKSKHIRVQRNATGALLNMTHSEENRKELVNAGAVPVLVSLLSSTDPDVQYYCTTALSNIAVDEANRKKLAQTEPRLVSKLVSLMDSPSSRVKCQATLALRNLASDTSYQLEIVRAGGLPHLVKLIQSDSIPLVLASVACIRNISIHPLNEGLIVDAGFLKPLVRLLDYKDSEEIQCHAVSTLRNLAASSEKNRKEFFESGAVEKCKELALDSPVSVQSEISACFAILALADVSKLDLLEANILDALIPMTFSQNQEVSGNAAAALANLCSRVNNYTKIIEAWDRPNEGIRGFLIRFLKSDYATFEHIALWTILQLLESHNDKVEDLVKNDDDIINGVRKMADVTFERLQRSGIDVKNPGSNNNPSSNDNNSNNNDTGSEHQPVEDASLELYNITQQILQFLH
The experiment is described as follows: ITC. In general terms: Isothermal titration calorimetry measures the heat released or taken up as one component is titrated into another.

Experiment [1] addresses T2, Vac8[Δ19–33] (full-length Vac8 lacking the H1 helix, residues 19–33) (S. cerevisiae, UniProt P39968 1-578, Δ19–33).
T2 sequence (looked up): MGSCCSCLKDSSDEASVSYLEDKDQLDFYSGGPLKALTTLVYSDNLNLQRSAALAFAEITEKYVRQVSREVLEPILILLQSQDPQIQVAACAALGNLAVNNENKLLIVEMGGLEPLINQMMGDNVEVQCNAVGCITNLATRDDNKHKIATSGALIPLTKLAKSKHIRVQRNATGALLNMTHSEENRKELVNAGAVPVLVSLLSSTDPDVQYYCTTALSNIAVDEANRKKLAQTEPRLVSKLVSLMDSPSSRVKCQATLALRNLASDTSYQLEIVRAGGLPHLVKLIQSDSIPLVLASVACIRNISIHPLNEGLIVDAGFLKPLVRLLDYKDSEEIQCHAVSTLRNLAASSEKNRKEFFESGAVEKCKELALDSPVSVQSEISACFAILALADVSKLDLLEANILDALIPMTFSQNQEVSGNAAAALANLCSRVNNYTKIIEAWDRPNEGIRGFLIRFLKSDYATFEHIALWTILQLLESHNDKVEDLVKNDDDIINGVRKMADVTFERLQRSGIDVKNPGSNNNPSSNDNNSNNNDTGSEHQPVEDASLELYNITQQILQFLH
The experiment is described as follows: ITC.

In a further experiment the target is T3, Vac8[40–515] (S. cerevisiae, UniProt P39968 40-515).
T3 sequence (looked up): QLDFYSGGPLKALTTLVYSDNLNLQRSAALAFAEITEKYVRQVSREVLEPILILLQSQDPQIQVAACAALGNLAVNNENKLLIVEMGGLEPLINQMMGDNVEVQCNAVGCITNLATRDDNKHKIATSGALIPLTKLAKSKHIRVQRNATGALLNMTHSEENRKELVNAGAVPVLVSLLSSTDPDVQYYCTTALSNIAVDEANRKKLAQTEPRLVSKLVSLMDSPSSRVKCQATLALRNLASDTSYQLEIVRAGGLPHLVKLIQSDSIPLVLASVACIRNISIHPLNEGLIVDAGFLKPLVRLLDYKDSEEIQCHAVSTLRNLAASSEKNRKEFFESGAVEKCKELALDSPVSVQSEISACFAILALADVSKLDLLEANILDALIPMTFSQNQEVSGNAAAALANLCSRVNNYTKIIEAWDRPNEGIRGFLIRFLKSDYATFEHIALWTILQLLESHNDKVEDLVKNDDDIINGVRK
The experiment is described as follows: SEC. (In general: Size exclusion chromatography separates by hydrodynamic size, large species first.)

The target of a further experiment is T4, Vac8[40–578] (S. cerevisiae, UniProt P39968 40-578).
T4 sequence (looked up): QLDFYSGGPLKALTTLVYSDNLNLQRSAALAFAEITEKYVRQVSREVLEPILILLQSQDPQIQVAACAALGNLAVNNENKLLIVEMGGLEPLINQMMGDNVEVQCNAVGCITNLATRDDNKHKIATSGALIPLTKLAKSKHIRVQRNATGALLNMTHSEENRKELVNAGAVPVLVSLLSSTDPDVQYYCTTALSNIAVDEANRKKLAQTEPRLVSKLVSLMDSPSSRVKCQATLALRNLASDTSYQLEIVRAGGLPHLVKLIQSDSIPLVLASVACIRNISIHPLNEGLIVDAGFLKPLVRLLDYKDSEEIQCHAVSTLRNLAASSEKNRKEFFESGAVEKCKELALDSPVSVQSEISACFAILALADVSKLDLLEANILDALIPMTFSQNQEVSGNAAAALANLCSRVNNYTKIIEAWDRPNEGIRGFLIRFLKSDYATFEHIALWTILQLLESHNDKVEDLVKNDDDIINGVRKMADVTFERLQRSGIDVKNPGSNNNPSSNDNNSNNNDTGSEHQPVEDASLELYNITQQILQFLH
Kind of experiment: SAXS.

B1: tAtg13 (Atg13 construct comprising residues 567–695) (domain or fragment, S. cerevisiae, UniProt Q06628 567-695, looked up)
chain: GGNSSTSALNSRRNSLDKSSNKQGMSGLPPIFGGESTSYHHDNKIQKYNQLGVEEDDDDENDRLLNQMGNSATKFKSSISPRSIDSISSSFIKSRIPIRQPYHYSQPTTAPFQAQAKFHKPANKLIDNG
As for B1, the binding result with full-length Vac8, with Vac8[40–515] and with Vac8[40–578] was “binds” throughout. Besides, the Kd in experiment [1] is 1460 nM.

The term Kd denotes the concentration at which binding is half-saturated. Read a low Kd as tighter binding.
